In the supplement of paper PMC9112550, “Optimization of the antimicrobial peptide Bac7 by deep mutational scanning” (BMC Biology, 2022):

test system: Escherichia coli TOP10; assay: shrunken log2 fold change of peptide-encoding DNA abundance (4.5 h post-induction vs induction); higher = less antimicrobial activity (less host growth inhibition); details: time post-induction: 4.5 h; library: site-saturation at positions 5, 18, 19, 20
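Also: peptides expressed intracellularly from a pBAD plasmid library in pooled LB shake-flask culture, induced with 0.3% L-arabinose, DNA abundance read by NGS, three biological replicates, DESeq2 with apeglm shrinkage.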

Point of comparison: RRIRSRPPRLPRPRPRPHCTPRP, “shrunken log2 fold change” value -0.298. Against it:
- RRIRARPPRLPRPRPRPGQMPRP — higher, 0.0151
- RRIRGRPPRLPRPRPRPNHIPRP — within 0.2 log units, -0.444
- RRIRLRPPRLPRPRPRPWLKPRP — higher, 0.0827
- RRIRSRPPRLPRPRPRPMNWPRP — higher, -0.0283
- RRIRKRPPRLPRPRPRPSYTPRP — higher, -0.0235
- RRIRARPPRLPRPRPRPAWHPRP — higher, 0.159
- RRIRGRPPRLPRPRPRPDNYPRP — higher, 0.0266
- RRIRNRPPRLPRPRPRPEQPPRP — higher, 0.0618
- RRIRLRPPRLPRPRPRPVRDPRP — within 0.2 log units, -0.105
- RRIRLRPPRLPRPRPRPPILPRP — within 0.2 log units, -0.287
- RRIRDRPPRLPRPRPRPTVIPRP — within 0.2 log units, -0.118
- RRIRVRPPRLPRPRPRPKCFPRP — within 0.2 log units, -0.213
- RRIRRRPPRLPRPRPRPFPKPRP — higher, 0.0876
- RRIRKRPPRLPRPRPRPQTWPRP — higher, 0.134
- RRIRCRPPRLPRPRPRPVADPRP — higher, 0.181
- RRIRDRPPRLPRPRPRPFEVPRP — higher, -0.0211
- RRIRPRPPRLPRPRPRPGKHPRP — within 0.2 log units, -0.141
- RRIRARPPRLPRPRPRPHEKPRP — higher, 0.358
- RRIRIRPPRLPRPRPRPQPCPRP — higher, -0.0143
- RRIRHRPPRLPRPRPRPQAKPRP — higher, -0.016
- RRIRLRPPRLPRPRPRPRQLPRP — higher, 0.153
- RRIRERPPRLPRPRPRPMWFPRP — within 0.2 log units, -0.159
- RRIRHRPPRLPRPRPRPCASPRP — higher, -0.028
- RRIRQRPPRLPRPRPRPEYRPRP — higher, 0.0706
- RRIRPRPPRLPRPRPRPGKPPRP — higher, 0.306
- RRIRVRPPRLPRPRPRPNLTPRP — within 0.2 log units, -0.186
- RRIRKRPPRLPRPRPRPRGIPRP — higher, 0.0697
- RRIRCRPPRLPRPRPRPRLAPRP — higher, 0.559
- RRIRVRPPRLPRPRPRPIPKPRP — within 0.2 log units, -0.131
- RRIRYRPPRLPRPRPRPSAKPRP — within 0.2 log units, -0.117
- RRIRQRPPRLPRPRPRPCEAPRP — higher, 0.00535
- RRIRLRPPRLPRPRPRPNPQPRP — within 0.2 log units, -0.2
- RRIRSRPPRLPRPRPRPHFFPRP — higher, -0.0717
- RRIRSRPPRLPRPRPRPHNQPRP — within 0.2 log units, -0.271
- RRIRMRPPRLPRPRPRPLLRPRP — higher, 0.0923
- RRIRVRPPRLPRPRPRPTWQPRP — higher, 0.27
- RRIRDRPPRLPRPRPRPLKLPRP — higher, 0.0229
- RRIRERPPRLPRPRPRPYYPPRP — within 0.2 log units, -0.14
- RRIRARPPRLPRPRPRPEHEPRP — higher, 0.00993
- RRIRYRPPRLPRPRPRPPNNPRP — lower, -0.708
- RRIRRRPPRLPRPRPRPKPKPRP — higher, 0.273
- RRIRKRPPRLPRPRPRPVRNPRP — higher, 0.308
- RRIRYRPPRLPRPRPRPDYHPRP — higher, -0.0195
- RRIRGRPPRLPRPRPRPIAAPRP — higher, 2.9
- RRIRNRPPRLPRPRPRPYHFPRP — within 0.2 log units, -0.309
- RRIRPRPPRLPRPRPRPDWLPRP — higher, 0.288
- RRIRDRPPRLPRPRPRPLCSPRP — higher, 0.513
- RRIRDRPPRLPRPRPRPQFHPRP — within 0.2 log units, -0.438
- RRIRTRPPRLPRPRPRPCPFPRP — within 0.2 log units, -0.484
- RRIRQRPPRLPRPRPRPRDCPRP — higher, 0.142
- RRIRGRPPRLPRPRPRPCHMPRP — higher, -0.00127
- RRIRNRPPRLPRPRPRPALKPRP — higher, 0.108
- RRIRGRPPRLPRPRPRPHDHPRP — higher, -0.027
- RRIRHRPPRLPRPRPRPRNAPRP — higher, 0.184
- RRIRWRPPRLPRPRPRPKDVPRP — higher, -0.0454
- RRIRQRPPRLPRPRPRPHTQPRP — higher, 0.0338
- RRIRQRPPRLPRPRPRPDNEPRP — within 0.2 log units, -0.359
- RRIRRRPPRLPRPRPRPRLYPRP — higher, -0.00733
- RRIRGRPPRLPRPRPRPACLPRP — higher, 0.792
- RRIRNRPPRLPRPRPRPLRLPRP — higher, 0.357
- RRIRERPPRLPRPRPRPKGHPRP — higher, 0.092
- RRIRERPPRLPRPRPRPDLRPRP — higher, -0.076
- RRIRVRPPRLPRPRPRPNKQPRP — higher, 0.0173
- RRIRTRPPRLPRPRPRPCMLPRP — higher, 0.0676
- RRIRARPPRLPRPRPRPTDIPRP — higher, 0.224
- RRIRCRPPRLPRPRPRPNSFPRP — lower, -0.58
- RRIRMRPPRLPRPRPRPQLDPRP — higher, 0.277
- RRIRERPPRLPRPRPRPVMVPRP — higher, 0.204
- RRIRSRPPRLPRPRPRPMYFPRP — within 0.2 log units, -0.229
- RRIRLRPPRLPRPRPRPVKTPRP — higher, -0.0565
- RRIRIRPPRLPRPRPRPHNMPRP — lower, -0.898
- RRIRCRPPRLPRPRPRPRSWPRP — higher, 0.417
- RRIRSRPPRLPRPRPRPAKFPRP — within 0.2 log units, -0.134
- RRIRYRPPRLPRPRPRPTSLPRP — higher, -0.0466
- RRIRCRPPRLPRPRPRPGQLPRP — higher, -0.00796
- RRIRTRPPRLPRPRPRPMEPPRP — higher, 0.045
- RRIRVRPPRLPRPRPRPPLLPRP — higher, 0.287
- RRIRLRPPRLPRPRPRPSLLPRP — within 0.2 log units, -0.254
- RRIRLRPPRLPRPRPRPNEDPRP — within 0.2 log units, -0.132
- RRIRYRPPRLPRPRPRPIKQPRP — higher, -0.0386
- RRIRARPPRLPRPRPRPDWYPRP — within 0.2 log units, -0.213
- RRIRTRPPRLPRPRPRPNQWPRP — higher, -0.0389
- RRIRRRPPRLPRPRPRPSLVPRP — higher, 0.243
- RRIRHRPPRLPRPRPRPDTIPRP — higher, -0.0628
- RRIRIRPPRLPRPRPRPCMTPRP — within 0.2 log units, -0.337
- RRIRFRPPRLPRPRPRPCRPPRP — higher, 0.0632
- RRIRLRPPRLPRPRPRPDGSPRP — higher, 0.0129
- RRIRERPPRLPRPRPRPDFAPRP — higher, 0.159
- RRIRMRPPRLPRPRPRPCEPPRP — higher, 0.234
- RRIRIRPPRLPRPRPRPSGIPRP — within 0.2 log units, -0.469
- RRIRMRPPRLPRPRPRPKLCPRP — higher, 0.438
- RRIRKRPPRLPRPRPRPKHKPRP — higher, 0.362
- RRIRIRPPRLPRPRPRPIGGPRP — higher, -0.0686
- RRIRPRPPRLPRPRPRPCSYPRP — lower, -0.858
- RRIRLRPPRLPRPRPRPTNLPRP — within 0.2 log units, -0.27
- RRIRWRPPRLPRPRPRPANHPRP — within 0.2 log units, -0.262
- RRIRTRPPRLPRPRPRPEHGPRP — higher, 0.0391
- RRIRHRPPRLPRPRPRPGCTPRP — lower, -0.514
- RRIRPRPPRLPRPRPRPHVSPRP — higher, 0.00841
- RRIRDRPPRLPRPRPRPAPSPRP — higher, 0.367
- RRIRQRPPRLPRPRPRPLDMPRP — higher, 0.0532
- RRIRCRPPRLPRPRPRPTILPRP — lower, -0.646
- RRIRVRPPRLPRPRPRPAYMPRP — within 0.2 log units, -0.271
- RRIRVRPPRLPRPRPRPCYEPRP — within 0.2 log units, -0.246
- RRIRGRPPRLPRPRPRPPSCPRP — higher, 0.654
- RRIRNRPPRLPRPRPRPDYLPRP — within 0.2 log units, -0.142
- RRIRARPPRLPRPRPRPLFSPRP — within 0.2 log units, -0.124
- RRIRHRPPRLPRPRPRPTDCPRP — higher, 0.038
- RRIRYRPPRLPRPRPRPAPAPRP — higher, 0.0272
- RRIRPRPPRLPRPRPRPKCLPRP — higher, -0.0739
- RRIRWRPPRLPRPRPRPSDDPRP — higher, 0.328
- RRIRCRPPRLPRPRPRPPDSPRP — higher, -0.0091
- RRIRIRPPRLPRPRPRPKSRPRP — within 0.2 log units, -0.108
- RRIRGRPPRLPRPRPRPKVPPRP — higher, 0.447
- RRIRGRPPRLPRPRPRPVKCPRP — within 0.2 log units, -0.118
- RRIRMRPPRLPRPRPRPMFNPRP — within 0.2 log units, -0.343
- RRIRGRPPRLPRPRPRPVTVPRP — higher, 0.0499
- RRIRWRPPRLPRPRPRPRIMPRP — higher, 0.12
- RRIRERPPRLPRPRPRPTKNPRP — within 0.2 log units, -0.187
- RRIRYRPPRLPRPRPRPRIRPRP — higher, 0.0291
- RRIRGRPPRLPRPRPRPNSRPRP — higher, 0.107
- RRIRARPPRLPRPRPRPNYQPRP — within 0.2 log units, -0.418
- RRIRLRPPRLPRPRPRPGIEPRP — higher, -0.00975
- RRIRRRPPRLPRPRPRPDDLPRP — within 0.2 log units, -0.128
- RRIRPRPPRLPRPRPRPIYIPRP — within 0.2 log units, -0.36
- RRIRGRPPRLPRPRPRPWQLPRP — higher, 0.372
- RRIRTRPPRLPRPRPRPRLHPRP — higher, 0.0546
- RRIRVRPPRLPRPRPRPHMQPRP — higher, 0.0906
- RRIRFRPPRLPRPRPRPYIIPRP — within 0.2 log units, -0.395
- RRIRRRPPRLPRPRPRPKTLPRP — higher, 0.146
- RRIRWRPPRLPRPRPRPRYNPRP — within 0.2 log units, -0.396
- RRIRNRPPRLPRPRPRPRPMPRP — higher, 0.522
- RRIRWRPPRLPRPRPRPMIWPRP — higher, 0.0116
- RRIRSRPPRLPRPRPRPLRGPRP — higher, 0.897
- RRIRQRPPRLPRPRPRPLRWPRP — higher, 0.585
- RRIRHRPPRLPRPRPRPVHWPRP — higher, 0.0039
- RRIRPRPPRLPRPRPRPQVHPRP — higher, -0.0018
- RRIRYRPPRLPRPRPRPNSDPRP — within 0.2 log units, -0.233
- RRIRTRPPRLPRPRPRPIFLPRP — within 0.2 log units, -0.145
- RRIRNRPPRLPRPRPRPWRIPRP — higher, 0.0411
- RRIRGRPPRLPRPRPRPEHRPRP — higher, 0.102
- RRIRIRPPRLPRPRPRPALCPRP — higher, 0.0482
- RRIRWRPPRLPRPRPRPILLPRP — higher, -0.0849
- RRIRCRPPRLPRPRPRPNVCPRP — higher, -0.00167
- RRIRERPPRLPRPRPRPIRCPRP — higher, 0.0648
- RRIRKRPPRLPRPRPRPWGSPRP — higher, -0.034
- RRIRNRPPRLPRPRPRPWDEPRP — higher, 0.0165
- RRIRSRPPRLPRPRPRPYPYPRP — lower, -0.646
- RRIRQRPPRLPRPRPRPFSRPRP — higher, 0.00616
